Reference: PMC7226451, “Half Way to Hypusine—Structural Basis for Substrate Recognition by Human Deoxyhypusine Synthase” (Biomolecules, 2020)

B1: truncated DHS Δ1-52 (domain or fragment, human, UniProt P49366 53-369, looked up)
chain: GFQATNFGRAVQQVNAMIEKKLEPLSQDEDQHADLTQSRRPLTSCTIFLGYTSNLISSGIRETIRYLVQHNMVDVLVTTAGGVEEDLIKCLAPTYLGEFSLRGKELRENGINRIGNLLVPNENYCKFEDWLMPILDQMVMEQNTEGVKWTPSKMIARLGKEINNPESVYYWAQKNHIPVFSPALTDGSLGDMIFFHSYKNPGLVLDIVEDLRLINTQAIFAKCTGMIILGGGVVKHHIANANLMRNGADYAVYINTAQEFDGSDSGARPDEAVSWGKIRVDAQPVKVYADASLVFPLLVAETFAQKMDAFMHEKNED
notes: human deoxyhypusine synthase, Uniprot P49366, residues 53-369 (lacks the N-terminal ball-and-chain motif, residues 1-52); Cloned in pET24d with an N-terminal 6xHis-tag and a TEV site; also called truncation mutant; source: E. coli BL21(DE3), purified (HisTrap, TEV cleavage, reverse HisTrap, SEC); not shown: His6, N-terminal, cleaved
B2: deoxyhypusine synthase (DHS), full-length, wild type (enzyme, human, UniProt P49366 1-369, looked up)
chain: MEGSLEREAPAGALAAVLKHSSTLPPESTQVRGYDFNRGVNYRALLEAFGTTGFQATNFGRAVQQVNAMIEKKLEPLSQDEDQHADLTQSRRPLTSCTIFLGYTSNLISSGIRETIRYLVQHNMVDVLVTTAGGVEEDLIKCLAPTYLGEFSLRGKELRENGINRIGNLLVPNENYCKFEDWLMPILDQMVMEQNTEGVKWTPSKMIARLGKEINNPESVYYWAQKNHIPVFSPALTDGSLGDMIFFHSYKNPGLVLDIVEDLRLINTQAIFAKCTGMIILGGGVVKHHIANANLMRNGADYAVYINTAQEFDGSDSGARPDEAVSWGKIRVDAQPVKVYADASLVFPLLVAETFAQKMDAFMHEKNED
modifications: Cys177 covalently modified to a β-mercaptoethanol (BME) adduct (seen in all crystal structures)
notes: human deoxyhypusine synthase, Uniprot P49366, residues 1-369; gene optimised for E. coli and synthesised; Cloned in pET24d (NcoI/BamHI) with an N-terminal 6xHis-tag and a TEV site; also called DHS wt; full length DHS; source: E. coli BL21(DE3), purified (HisTrap, TEV cleavage, reverse HisTrap, SEC); not shown: His6, N-terminal, cleaved

Target: the molecule itself
Experiment: SEC-MALS; pure protein on XBridge BEH200 7.8 x 300 in 50 mM Tris 7.8, 200 mM NaCl, 5 mM β-ME, 1 mL/min; MALS with refractive index

Protein | stoichiometry N
B1 | 2
B2 | 4
